The results in this text go back to the supplement of paper PMC5998384.

Data set [1] concerns HeLa Kyoto. In words: solubility in G1/S (NP-40 vs SDS abundance) (log2 ratio); higher = more soluble. The conditions noted are these: cell cycle stage: G1/S.
Data set [2] deals with HeLa Kyoto. Put plainly: thermal stability score vs G1/S (z-score of summed log2 fold changes over temperatures); higher = more thermally stable than in G1/S.
Data set [3] concerns HeLa Kyoto. In words: solubility change mitosis vs G1/S (difference of NP-40 vs SDS log2 ratios) (log2 ratio difference); higher = more soluble in mitosis.
Data set [4] has as its system HeLa Kyoto. Put plainly: melting temperature (median over replicates), in situ; higher = more thermally stable.
Setting [5] is: cell cycle stage: early G1 (4.5 h after nocodazole release).
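For melting temperature (median over replicates), in situ in this document: HeLa Kyoto cells synchronized by double thymidine or nocodazole block, proteins quantified by TMT10plex mass spectrometry, three independent biological replicates.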
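For solubility change mitosis vs G1/S (difference of NP-40 vs SDS log2 ratios) in this document: synchronized HeLa Kyoto cells (double thymidine block for G1/S, nocodazole release for mitosis), protein amounts in NP-40 versus SDS lysates quantified by mass spectrometry, three biological replicates.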
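For solubility in G1/S (NP-40 vs SDS abundance) in this document: HeLa Kyoto cells arrested at G1/S by double thymidine block, proteins quantified by TMT10plex mass spectrometry in mild NP-40 versus SDS extracts, three biological replicates.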
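For thermal stability score vs G1/S (z-score of summed log2 fold changes over temperatures) in this document: synchronized HeLa Kyoto cells, proteins quantified by TMT10plex mass spectrometry, three biological replicates, mitosis taken 0.5 h after nocodazole release, G1/S directly after double thymidine block.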

Take “MFWKFDLHTSSHLDTLLEREDLSLPELLDEEDVLQECKVVNRKLLDFLLQPPHLQAMVAWVTQEPPDSGEERLRYKYPSVACEILTSDVPQINDALGADESLLNRLYGFLQSTGSLNPLLASFFSKVMGILINRKTDQLVSFLRKKDDFVDLLLQHIGTSAIMDLLLRLLTCVERPQLRQDVVNWLNEEKIVQRLIEQIHPSKDENQHSNASQSLCDIIRLSREQMIQVQDSPEPDQLLATLEKQETIEQLLSNMFEGEQSQSVIVSGIQVLLTLLEPRRPRSESVTVNSFFSSVDGQLELLAQGALESTVSSVGALHALRPRLSCFHQLLLEPPKLEPLQMTWGMLAPPLGNTRLHVVKLLASALSANDAALTHELLALDVPNTMLDLFFHYVFNNFLHAQVEGCVSTMLSLGPPPDSSPETPIQNPVVKHLLQQCRLVERILTSWEENDRVQCAGGPRKGYMGHLTRVAGALVQNTEKGPNAEQLRQLLKELPSEQQEQWEAFVSGPLAETNKKNMVDLVNTHHLHSSSDDEDDRLKEFNFPEEAVLQQAFMDFQMQRMTSAFIDHFGFNDEEFGEQEESVNAPFDKTANITFSLNADDENPNANLLEICYKDRIQQFDDDEEEEDEEEAQGSGESDGEDGAWQGSQLARGARLGQPPGVRSGGSTDSEDEEEEDEEEEEDEEGIGCAARGGATPLSYPSPGPQPPGPSWTATFDPVPTDAPTSPRVSGEEELHTGPPAPQGPLSVPQGLPTQSLASPPARDALQLRSQDPTPPSAPQEATEGSKVTEPSAPCQALVSIGDLQATFHGIRSAPSSSDSATRDPSTSVPASGAHQPPQTTEGEKSPEPLGLPQSQSAQALTPPPIPNGSAPEGPASPGSQ [PPP6R1]”: the “solubility in G1/S (log2)” value in data set [1] came out at 0.169. The thermal stability score was -1.2 in data set [2] (setting [5]) and -0.743 in data set [2] (cell cycle stage: mitosis). Besides, in data set [3], the “solubility change mitosis (log2)” value was -0.0433. The melting temperature in data set [4] (cell cycle stage: G1/S) is 53.1 °C; in data set [4] (cell cycle stage: mitosis), 50.6 °C.

As for “MGAPLLSPGWGAGAAGRRWWMLLAPLLPALLLVRPAGALVEGLYCGTRDCYEVLGVSRSAGKAEIARAYRQLARRYHPDRYRPQPGDEGPGRTPQSAEEAFLLVATAYETLKDEETRKDYDYMLDHPEEYYSHYYHYYSRRLAPKVDVRVVILVSVCAISVFQFFSWWNSYNKAISYLATVPKYRIQATEIAKQQGLLKKAKEKGKNKKSKEEIRDEEENIIKNIIKSKIDIKGGYQKPQICDLLLFQIILAPFHLCSYIVWYCRWIYNFNIKGKEYGEEERLYIIRKSMKMSKSQFDSLEDHQKETFLKRELWIKENYEVYKQEQEEELKKKLANDPRWKRYRRWMKNEGPGRLTFVDD [DNAJC25]”, the “solubility in G1/S (log2)” value in data set [1] is -0.101. Also, the thermal stability score in data set [2] (setting [5]) is 0.0789; in data set [2] (cell cycle stage: mitosis) it was -0.224. The “solubility change mitosis (log2)” value in data set [3] came to 0.00727. Also, the melting temperature in data set [4] (cell cycle stage: G1/S) was 50.5 °C; in data set [4] (cell cycle stage: mitosis), 50.2 °C.

Take “MGARASGGPLARAGLLLLLLLLLLLGLLAPGAQGARGRGGAEKNSYRRTVNTFSQSVSSLFGEDNVRAAQKFLARLTERFVLGVDMFVETLWKVWTELLDVLGLDVSNLSQYFSPASVSSSPARALLLVGVVLLAYWFLSLTLGFTFSVLHVVFGRFFWIVRVVLFSMSCVYILHKYEGEPENAVLPLCFVVAVYFMTGPMGFYWRSSPSGPSNPSNPSVEEKLEHLEKQVRLLNIRLNRVLESLDRSKDK [BRI3BP]”: the “solubility in G1/S (log2)” value in data set [1] is -0.138. The thermal stability score in data set [2] (setting [5]) was -0.814; in data set [2] (cell cycle stage: mitosis), -3.07. Further, the “solubility change mitosis (log2)” value in data set [3] turned out to be 0.0237. Further, the melting temperature turned out to be 55.1 °C in data set [4] (cell cycle stage: G1/S) and 53.1 °C in data set [4] (cell cycle stage: mitosis).

As for “MGAYARASGVCARGCLDSAGPWTMSRALRPPLPPLCFFLLLLAAAGARAGGYETCPTVQPNMLNVHLLPHTHDDVGWLKTVDQYFYGIKNDIQHAGVQYILDSVISALLADPTRRFIYVEIAFFSRWWHQQTNATQEVVRDLVRQGRLEFANGGWVMNDEAATHYGAIVDQMTLGLRFLEDTFGNDGRPRVAWHIDPFGHSREQASLFAQMGFDGFFFGRLDYQDKWVRMQKLEMEQVWRASTSLKPPTADLFTGVLPNGYNPPRNLCWDVLCVDQPLVEDPRSPEYNAKELVDYFLNVATAQGRYYRTNHTVMTMGSDFQYENANMWFKNLDKLIRLVNAQQAKGSSVHVLYSTPACYLWELNKANLTWSVKHDDFFPYADGPHQFWTGYFSSRPALKRYERLSYNFLQVCNQLEALVGLAANVGPYGSGDSAPLNEAMAVLQHHDAVSGTSRQHVANDYARQLAAGWGPCEVLLSNALARLRGFKDHFTFCQQLNISICPLSQTAARFQVIVYNPLGRKVNWMVRLPVSEGVFVVKDPNGRTVPSDVVIFPSSDSQAHPPELLFSASLPALGFSTYSVAQVPRWKPQARAPQPIPRRSWSPALTIENEHIRATFDPDTGLLMEIMNMNQQLLLPVRQTFFWYNASIGDNESDQASGAYIFRPNQQKPLPVSRWAQIHLVKTPLVQEVHQNFSAWCSQVVRLYPGQRHLELEWSVGPIPVGDTWGKEVISRFDTPLETKGRFYTDSNGREILERRRDYRPTWKLNQTEPVAGNYYPVNTRIYITDGNMQLTVLTDRSQGGSSLRDGSLELMVHRRLLKDDGRGVSEPLMENGSGAWVRGRHLVLLDTAQAAAAGHRLLAEQEVLAPQVVLAPGGGAAYNLGAPPRTQFSGLRRDLPPSVHLLTLASWGPEMVLLRLEHQFAVGEDSGRNLSAPVTLNLRDLFSTFTITRLQETTLVANQLREAASRLKWTTNTGPTPHQTPYQLDPANITLEPMEIRTFLASVQWKEVDG [MAN2B1]”, the “solubility in G1/S (log2)” value in data set [1] was found to be 0.313. Also, the thermal stability score was -0.143 in data set [2] (setting [5]) and -1.1 in data set [2] (cell cycle stage: mitosis). For the same sequence, the “solubility change mitosis (log2)” value in data set [3] was -0.109. Also, the melting temperature in data set [4] (cell cycle stage: G1/S) stood at 57.1 °C; in data set [4] (cell cycle stage: mitosis), 56.6 °C.
